{"source": "patent US20030229203", "biological_target": "T1, RANTES(1-68), P13501", "T1 chain": "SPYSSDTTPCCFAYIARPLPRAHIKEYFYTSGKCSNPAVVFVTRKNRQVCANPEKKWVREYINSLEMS"}
{"protein": "enzymatically deficient (E-) recombinant soluble human CD26 (sCD26) (protein) NKGTDDATADSRKTYTLTDYLKNTYRLKLYSLRWISDHEYLYKQENNILVFNAEYGNSSVFLENSTFDEFGHSINDYSISPDGQFILLEYNYVKQWRHSYTASYDIYDLNKRQLITEERIPNNTQWVTWSPVGHKLAYVWNNDIYVKIEPNLPSYRITWTGKEDIIYNGITDWVYEEEVFSAYSALWWSPNGTFLAYAQFNDTEVPLIEYSFYSDESLQYPKTVRVPYPKAGAVNPTVKFFVVNTDSLSSVTNATSIQITAPASMLIGDHYLCDVTWATQERISLQWLRRIQNYSVMDICDYDESSGRWNCLVARQHIEMSTTGWVGRFRPSEPHFTLDGNSFYKIISNEEGYRHICYFQIDKKDCTFITKGTWEVIGIEALTSDYLYYISNEYKGMPGGRNLYKIQLSDYTKVTCLSCELNPERCQYYSVSFSKEAKYYQLRCSGPGLPLYTLHSSVNDKGLRVLEDNSALDKMLQNVQMPSKKLDFIILNETKFWYQMILPPHFDKSKKYPLLLDVYAGPCSQKADTVFRLNWATYLASTENIIVASFDGRGSGYQGDKIMHAINRRLGTFEVEDQIEAARQFSKMGFVDNKRIAIWGWAYGGYVTSMVLGSGSGVFKCGIAVAPVSRWEYYDSVYTERYMGLPTPEDNLDHYRNSTVMSRAENFKQVEYLLIHGTADDNVHFQQSAQISKALVDVGVDFQAMWYTDEDHGIASSTAHQHIYTHMSHFIKQCFSLP", "values": [{"measurement": "hydrolysis of rhRANTES by sCD26 (ES-MS of cleavage products)", "result": "shortened RANTES was not generated by incubation of the chemokine with a mutant sCD26 deficient in enzyme activity"}]}
